Results as given in a protein production outcome set (Wang et al. 2014).

Experiment: label from the status in PepcDB records

Sequence	protein production
MVPSGVRTGRWVAAARAAQRRPRVDSLGQPPSPESASTRAALYVHWPYCEKRCSYCNFNKYIPRGVEEGTVRNCLVTEARTLLRLSGVQRVESVFFGGGTPSLASPHTVAAVLEAVAQEVYLPADSEVTLEANPTSAPGPRLAAFGAAGVNRLSIGLQSLDDAELQLLGRTHSASDALRTLAEARLLFPGRVSVDLMLGLPAQKVEPWLQQLQKLLYHCDDHLSLYQLTLERGTSLFAQVQQGTLPAPDPDLAAEMYQEGRTVLRDAGFRQYEVSNFARNGALSTHNWTYWQCGQYLGIGPGAHGRFVPQGTGGHTREARIQTLEPDNWMKEVTLFGHGTRKCVRLGKLELLEEVLAMGLRTDVGVTHQHWQQFEPQLTLWDVFGASKEVEELLAQGLLLLDYRGLRCSWEGLAVLDSLLLTLLPQLQEAWQHRPSSPVSGG	failed
MVPTPKPVVDRMLELADVDETDVLYDLGSGDGRIVIRAARTHGARGVGIEIDPDLVKKARKNAKEAGVADLVEFRQGDLFEADISEATVVTLYLLPSVNQKLRPILFEQLSPGTPVVSHDFDMGRWAPDRTVDLEGDTVYRWTIPLEHHHHHH	failed
MVQQSEVRQMKHSVSTLNQEMTQLNQETVKITQQNRLNAKSSSGVYLLPGAKTPARLESQIGTLRMSLVNITPDADGTTLTLRIQGESNDPLPAFSGTVEYGQIQGTIDNFQEINVQNQLINAPASVLAPSDVDIPLQLKGISVDQLGFVRIHDIQPVMQLEHHHHHH	not failed
MVRIRWFFIRHAESEANVVERWRIAGRSEAARLTERGERQARVVGEAVAIRLEQVLRVDGGDAGGVSGDAGRRRVLAPVAFTSPLLRARQTAALVLEQVAQPVKLEPVDDLAEVYQGLWEDALRSEVHTPETLQAMARNPYEFRAPGGEAQADVERRVLRAVSRMSQRVLSLLSLELEENEQTDVIVLVFTHGYVCKCLIRSVLDASPHLTGQIQVDNGALVELWLEPAAQQGALTSAAELGMWTVLRINDTWGQLTASMR	failed
MVRKALLFVIDVALTYFAGVVALFSRFGFDFQEMSRYDESVIVYTVISAVVYILNGNYSIVWEYANARDFLILIRGSVISYLSNLAFFYVYRGIVLPRSVGFAVFLGSMVLLVLSRITWQWMIVNGRGKVPGEKRILIIGAGDAGVSILEEFEKHPHLGKIVAFVDDSPRKIGRKVRGVPVFGPIEKTMEFVEKMNVDEIVIAIPSASRAEMERILKSIDLKKVRVKTLPSVRELIEGRVRISHLKEISIEDLLGREEVKVDFHEIGKFLKGKKILVTGAGGSIGSELCKQIARMNPAEIFLLGHGETSIYLINEFLTEHFPEVKKKRIIADVADRKIMEHWLTQLRPDVIFHVAAHKHVPLMEENPLEAFRVNVLGTMNLVELSERLGVKYFVFISTDKAVNPTSVMGLTKRIAELYILSREKNSTNFSIVRFGNVLGSRGSVVEKFRRQIEKGGPVTVTDPRMKRYFMSIPEAVSLILQSLLFSSGKDLFILDMGEQIPILKLAETMIMLSGYTPYQDIKIVFTGIRPGEKMYEELLYPYEVKELTPHSKIFRVKTSVLPGKESVEQAINRMKEAFENSDVKGLLTEMKKLVPEAQINVGSDN	failed
MVRLEDYGTWDEALKRLEASRKALLALLREADPAWLSAPLREGAWTPLMVAEHVALVEDSTARVLRRLRRLAAGENLPPVPVKPGEFKDGKPQAPEGVRPKGGLSLEEVLALLDRARAFLLEEVAKADPQNPATFPHPFFGELNPLGWLRAAAYHEAHHLKALQASLPR	not failed
MVRLFGPLVGLFFAVALLWSFGNGAYVAITEPAAPTAESVFHKHPKELDLASNGAFGRFDKQQLQRGFQVYKEVCATCHSLKQIAFRDLAALGYSEAEVKAIAKGWPTKAATFNPVTGDRGERDNIPSDRIPAVYYAGQGVPPDLSLMTKARHDGGAYVYSLLTGYAEQPAELLKQFPDAKTPDGLHYNPYFANLNLAMPAPLTTDGQVTYSDGTKASVDQMAKDVSAFLVWTAEPKLDKRKQTGWAVLGFLLVATVLAYLAKKNVWADKH	failed
MVRMQTKAVMVFKLDEEGNAFYTQDIGDLYIFISRSEPFCVPASSFPGMFSNFVELLDVNENVTVDLSDYSMNGGFGYFGAPAHIPPQKLD	failed
MVRPYGIKVNKRKEREERYDKEEDEVEEQPKFEQKQKARESSKKAKKESTSRAEEDNDEEEVTVEATAAAEDIVGGIPIVLNAPNKEKSGIVFVLEKASLEVAKVGKTYQLLNSDDHANFLKKNNRNPADYRPDITHQALLMILDSPVNKAGRLKAVYVRTEKGVLFEVKPHVRIPRTFKRFAGIMLQLLQKLSITAVNSREKLLRCVKNPIEEHHLPVNSHRIGFSHSSEKLVNMQKHLATVCDDDRDTVFVVGAMAHGKIDCNYIDEFVSVSEYPLSAAYCISRICEALATNWNII	failed
MVRRKKLLSGVLLLSGMLCTGRVMAQQWLYKQAAVPIEYRVKDLLGRMTIEEKVGQLCCPLGWEMYTKTGKNEVTVSELYKKKMAEAPVGSFWAVLRADPWTQKTLETGLSPELSAKALNALQKYAVEETRLGIPVLFAEECPHGHMAIGTTVFPTALSAASTWNEGLMLKMGEAIALEARLQGANIGYGPVLDVAREPRWSRMEETFGEDPVLTTIMGVAMMKGMQGKVQNDGKHLYATLKHFAAYGVPESGHNGSRANCGMRQLLSEYLPPFRKAVKEGAGTLMTSYNAIDGVPCTANKELLTDVLRNQWGFKGFVYSDLISIEGIVGMRAAKDNKEAAVKALKAGLDMDLGGNAFGKNLKKAYEEGLITMADLDRAVGNVLRLKFQMGLFENPYVSPELAKKLVHSKEHKELARQVAREGVVLLKNEGVLPLSKHIGHLAVIGPNADEMYNQLGDYTAPQVREEVATVLDGIRAAVSESTRVTYVKGCAVRDTTATDIPAAVAAAQKADAVVLVVGGSSARDFKTKYISTGAATVSEDAKTLPDMDCGEGFDRSSLRLLGDQEKLISAVASTGKPLVVVYIQGRTMNMNLAAEKAQALLTAWYPGEQGGMGIADILFGDYSPAGRLPVSVPRSEGQLPVFYSQGTQRDYVESKGTPLYAFGYGLSYTRFTYSGLELQKGTEMETLQTVACTVTNTGNRDGEEVVQLYIGDKVASVSQPPLLLKAFQRIFLKKGESRQVIFHLKKDDLGIYDSEMNYVVEPGEFKVMVGAASNDIRLEGEFVL	failed
MVSAFNTGRTDDVDEYIHPDYLNPATLEHGIHTGPKAFAQLVGWVRATFSEEARLEEVRIEERGPWVKAYLVLYGRHVGRLVGMPPTDRRFSGEQVHLMRIVDGKIRDHRDWPDFQGTLRQLGDPWPDDEGWRP	not failed
MVSRLEHPAGGYKKVFESCEELAEPIPAHVSGKIPAWLSGSLLRMGPGLFEIGDEPFNHLFDGQALIHKFDLKDGRVTYHRKFIRTDAYVRAMTEKRVVITELGTAAYPDPCKNIFSRFFTYFQGTEVTDNCSVNIYPIGEDFYACTETNFITKVNPDTLETIKKVDLCNYLSVNGLTAHPHIEADGTVYNIGNCFGKNMSLAYNIVKIPPLQEEKSDPLAMSKVLVQFPSSERFKPSYVHSFGMTENHFVFVETPVKINLLKFLTSWSIRGSNYMDCFESNDRMGTWFHLAAKNPGKYINNPSQ	failed
MVTDADYRELRGATETPREAVVVGLAGEVGLTSAEIPRVRPCDVAPHDHDGVTHYFLAVPGADGGSDRDAYLPPAVERDIRRRADAAGLADDDPLVDVSARRVQTLVNAVAGRTDTAGLDGVAAQDLRSFFARRLLTGAGVDPRVVAAVGGWSRLASLDQYAAVDALEHHHHHH	failed
MVTGIVFHEEYLKHEQSPTHPERRERLAYTMDQLREEGIFESERIVLLEPFKASLEDVLEVHTEEYVRFLEMESKKGGIIDFDTNIPVGVFDRALLAAGGAIRAAQAVLNKECENAFAMIRPPGHHAKPYIGAGFCYLNNMAIMVKWLLKQGFERIAILDWDAHHGDGTQEIFYNDDRVLFISTHQMPLYPGTGYPEECGTGKGEGYTVNIPLPPGTGDEGYMMVIDEIIEPVVNEFKPQFIAISAGQDNHFTDPITSLALTARGYAEMMRRAVAMAEKHCDGRLVAVLEGGYSVEGALPYTNLGIIAAMAGFDLSAIREPENYLPELLWRKRDSALVKLKHNIEDVKRVHSKYWKCFK	failed
MVTLQAFQPLIDTVQGSLLLASPDDGHIYCANQLACILLASPHSELLKSSVYDFLPDKNEAYTICRELAGNNMIYNRGMQLSTSTGRIFDVQLSARRISLDQVPLLVVSFSDRTETKVLGQLLDFERQLVERSLSIVKTLKEEGRQNDDEDKLTGVVGMHRLMSSAHSETSRAKRYGGSLSGLALELVNVPEMVPREDDGSAYGHLIRLAGSLCLQSSRDSDLVARRSANTFVILLPHTAIGGANEMGRRLIKSLRQLTFLYQGTEHQAAACVGISALRPEESSPTPMLERLEEALKKARDGGANYIIQLP	failed
MVTNKLITLLPDLATFIVVVNEGSFTAAAKKLGVTPSALSKLITRLENALSVKLFERTTRSLLITESGKKIYQQSVIMVEAAQQAVDISSSEHTVPSGSLTVAAPKAFLTIVLQPLITPFLTKYPKIQLKLRASDGDIDMIAQGIDVVFRLTDKPTEGLVMKEIGKVNLSLCASPTYLEERGIPHLPQELANHDCLFLGETTTDHIWEFVKGTESHVIAVSGRYAVNHSQMRLNGVKDGFGIGIFPDFVIKEALANNEVISVLSDWQIKGNYHGVIAMQYAQNKYIPSRLKVFTEFVKENLMKSKVNDERT	not failed
MVTPFPEVSEWLCIGQIVGAHGLRGEVKVKPFSDFPERFTVPGCRWLRSPRQPQPYAVTLLRGRFLPRAEQFVVTFAEISDRTAAEALKGAEILVPASDRPPLAANEYHLMDLIGLAVYHQGERVGEVVGLVNAGNDLLEVQLLDPAPKAPQSVYIPFVPAIVPVVDLAARRIEIDPPLGLLPLEHHHHHH	failed
MVTREEFVARFGGVFEHSPFIAERAYDAGGAGLELTAKAVHGALCAQFRVASEAERLGVLRAHPDLAGKLAIAGELTADSRNEQAGAGLDRLSPQEHARFTQLNSAYTEKFGFPFIIAVKGLNRHDILSAFDTRIDNNAAQEFATATGQVEKIAWLRLASMLPEG	not failed
MVVNTLGRYFARRFVIASLGVFFGLFVLLVFVDYVDLLRRAGGLAVSAFYVAQASFCRVPQLLERLLPFCILIGGMTCYLALSRSLELVVARAAGLSAWEFISPALWSAIAIGIFATTVFNPLSAHMQERAKQMEAEMFGENTGGLQDANGFWMNQVSPDGQAIINAARSQQQGAVLTGITVFRFEPDFQFKDRIEAREAVLEPGHWLLKNVRRYTMDGAPVDQDTLELPTSLTLAQVRNSFATPESVSFWQLPTYIKSSENSGFATAGYRLQYHKLLAKPFLLAAMVMLAASVSLRFFRFGGVQKMVLSGVAAGFLLYILSKVTEDLSKAELMHPLAAAWLPVCVGGLAGFLALLYQEDG	failed
MVVSTDQAHSLGDVLGIAVPPTGQGDPVRVLAYDPEAGGGFLDALALDTLALLEGRWLHVVETLDRRFPGSELSSIAPEELCALPGIQEVLGLHAVGELAAARRWDRIVVDCASTADALRMLTLPATFGLYVERAWPRHRRLSIGADDGRSAVLAELLERIRASVERLSTLLTDGALVSAHLVLTPERVVAAEAVRTLGSLALMGVRVEELLVNQLLVQDENYEYRSLPDHPAFHWYAERIGEQRAVLDDLDATIGDVALVLVPHLAGEPIGPKALGGLLDSARRRQGSAPPGPLQPIVDLESGSGLASIYRLRLALPQLDPGTLTLGRADDDLIVSAGGMRRRVRLASVLRRCTVLDAHLRGGELTVRFRPNPEVWPT	failed
MVVVMNPEQIYGVSNIKSHIPVMLDIEESNYDAWRELFLTHCLSFDVMGHIDGTLLPTNANDVNWQKRDGIVKLSLYGTLTPKQFQGSFVTSSTSRDIWLRIKNQFRNNKDARALRLDSELRTKDIGDMRVADYYRKMKKLADSLRNVDVPVTDRNLVMYVLNGLNPKFDNIINVIKHRQPFPSFDDAATMLQEEEDRLKRAIKPNPTHVDHSSSSTVLACSEAPPVTNFQRSGGNQMGYRGRGRGNNIFRGRGGRFSYYNMPTFNSWNRPPFYQNSYQMWNHPWGYPPYVNTNGGNGLGLLGPRPAY	failed
